Paper PMC7332060, “Characterizing the actin-binding ability of Zasp52 and its contribution to myofibril assembly” (PLoS ONE, 2020)

B1: GST-Zasp52-PK (natural protein)
chain: MAQPQLLQIKLSRFDAQPWGFRLQGGTDFAQPLLVQKVNAGSLSEQAGLQPGDAVVKINDVDVFNLRHKDAQDIVVRSGNNFVITVQRGGSTWRPHVTPTGNVPQPNSPYLQTVTKTSLAHKQQDSQHIGCGYNNAARPFSNGGDGGVKSIVNKQYNTPVGIYSDESIAETLSAQAEVLAGGVLGVNFKKNEKEYQGDRSEVLKFLREEETGQSTPAFGNSHYEHDAPQQLQQPQQQYNQHQQHYHQQQQQQQSSTTRHVSAPVNSPKPPSTGGLPTGQNICTECERLITGVFVRIKDKNLHVECFKCATCGTSLKNQGYYNFNNKLYCDIHAKQAAINNPPTGTEGYVPVPIKPNTKLSASTISSALNSHGYGGHSNGYSNGNSTPAPAPV

Assays:
[1] = target: G-actin (Cytoskeleton AKL-99) (UniProt P68135 1-377); assay: SPR; surface plasmon resonance imaging (PlexArray HT); GST-Zasp52-PK printed on gold-coated chip; G-actin or α-actinin injected; PBST running buffer; 25°C; kinetic analysis with BIAevaluation 4.1; conditions: both partners purified
GST-Zasp52-PK = target: B1; assay: as above; conditions: both partners purified

Kd [1] [nM] | Kd (GST-Zasp52-PK) [nM] | Binder
1100 |  | B1
 | 86.5 | α-actinin (Cytoskeleton AT-01) (natural protein) MNQIEPGVQYNYVYDEDEYMIQEEEWDRDLLLDPAWEKQQRKTFTAWCNSHLRKAGTQIENIEEDFRNGLKLMLLLEVISGERLPKPDRGKMRFHKIANVNKALDYIASKGVKLVSIGAEEIVDGNVKMTLGMIWTIILRFAIQDISVEETSAKEGLLLWCQRKTAPYRNVNIQNFHTSWKDGLGLCALIHRHRPDLIDYSKLNKDDPIGNINLAMEIAEKHLDIPKMLDAEDIVNTPKPDERAIMTYVSCFYHAFAGAEQAETAANRICKVLAVNQENERLMEEYERLASELLEWIRRTIPWLENRTPEKTMKAMQKKLEDFRDYRRKHKPPKVQEKCQLEINFNTLQTKLRISNRPAFMPSEGKMVSDAGAWQRLEQAEKGYEEWLLNEIRRLERLEHLAEKFRQKASTHETWAYGKEQILLQKDYESASLTEVRALLRKHEAFESDLAAHQDRVEQIAAIAQELNELDYHDAVNVNDRCQKICDQWDRLGTLTQKRREALERTEKLLETIDQLHLEFAKRAAPFNNWMEGAMEDLQDMFIVHSIEEIQSLITAHEQFKATLPEADGERQSIMAIQNEVEKVIQSYNIRISSSNPYSTVTMDELRAKWDKVKQLVPIRDQSLQEELARQHANERLRRQFAAQANAIGPWIQNKMEEIARSSIQITGALEDQMNQLKQYEHNIINYKNNIDKLEGDHQLIQEALVFDNKHTNYTMEHIRVGWELLLTTIARTINEVETQILTRDAKGITQEQMNEFRASFNHFDRRKNGLMDHEDFRACLISMGYDLGEAEFARIMTLVDPNGQGTVTFQSFIDFMTRETADTDTAEQVIASFRILASDKPYILAEELRRELPPDQAQYCIKRMPAYSGPGSVPGALDYTAFSSALYGESDL
